Experimental data reported in the RNAGym collection of RNA variant scans (doi:10.1073/pnas.2313332121).
Fewer inactive variants are shown than the library holds.

B1: TPR 5TU (parent)
chain: GGAUCUUCUCGAUCUAACAAAAAAGACAAAUCUGCCACAAAGCUUGAGAGCAUCUUCGGAUGCAGAGGCGGCAGCCUUCGGUGGCGCGAUAGCGCCAACGUUCUCAACUAUGACACGCAAAACGCGUGCUCCGUUGAAUGGAGUUUAUCAUG

Variants of: B1
Experiment: polymerase ribozyme fitness, log enrichment relative to wild type (log ratio); higher = more active; in vitro selection for triplet polymerase activity
How it was run: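 Each subunit of a heterodimeric triplet polymerase ribozyme was mutagenized into a library by PCR, transcribed, and subjected to one round of in vitro selection, run in triplicate. Libraries were annealed with a biotinylated primer, the partner subunit and triplets, incubated frozen at −7 °C, and extended constructs were gel-excised, captured on streptavidin beads and recovered by RT-PCR. Input and output libraries were sequenced on Illumina, keeping genotypes with ≥10 input reads and ≥1 read per output. Fitness is log base 2 of genotype enrichment divided by wild-type enrichment, from inverse-variance-weighted replicate averages.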

Row | Variant | polymerase ribozyme fitness (log ratio)
1 | A26C G86A U102A G128U C131G | ≤ -4.2
2 | G25U U44G U45A U56A G80A C85U A97U | ≤ -4.2
3 | C27A A28G A40C A47C A73C U77C C99G | ≤ -4.2
4 | A26C A52U C54U G58A G71A G74C C87U C108A | ≤ -4.2
5 | G25U G50U C54A A66U A91C | ≤ -4.2
6 | A26G C36U G65C A91G U111G C149A | ≤ -4.2
7 | A26G A39G C85U | ≤ -4.2
8 | A26U G62A | -1.51
9 | C27A A28C C57G C76A A91C | ≤ -4.2
10 | G25U A26C A49G U61A C76U U104A C114U A119C | ≤ -4.2
11 | G25C U56A U104C A106U A113G U139G U145A | ≤ -4.2
12 | A26U C35U G42C C108A A115C G133U U135A A142G U146C A147G | ≤ -4.2
13 | A26U A98G U127G | ≤ -4.2
14 | G25U A39U U55A U102C U109G C114U A120U A122G U144G | ≤ -4.2
15 | C27A C63A G80C C85G A119C U144A | ≤ -4.2
16 | G25C C132U | -3.65
17 | A26C A29U C36A G42A U61A G70A A73C | ≤ -4.2
18 | A26U C96U C108G U127A | ≤ -4.2
19 | C27A C38G C43U C85U G133A U144C | ≤ -4.2
20 | A26U A147U | -0.0486
21 | A26U U78A C96A C116U U146C | ≤ -4.2

Row | Variant | polymerase ribozyme fitness (log ratio)
22 | G25U U55G A122U | -3.1
23 | A26U A47C A49C G80C C85A A113G A150U | ≤ -4.2
24 | A26U C93U C118U C125A | ≤ -4.2
25 | G25C C75A U104A A119U U134G U135A | ≤ -4.2
26 | A26U G48A | -3.27
27 | A26C G117C | -2.51
28 | C27A A66C A73C G92U U148C | ≤ -4.2
29 | A26U A28C A52C G58A U139G A147C | ≤ -4.2
30 | G25U G83A A119C | -2.78
31 | A26U G46C U55A C93U C103A A106G C114A | ≤ -4.2
32 | G25U C27U C93U G143U | ≤ -4.2
33 | A26U A29C A47G A49U G59C G65A G117C U139G | ≤ -4.2
34 | A26U C36A G68C G86U G88C | ≤ -4.2
35 | A26U U104C G126C U146A | -2.67
36 | A26G U78C | -3.95
37 | G25C G88U G124A G128U U135C | ≤ -4.2
38 | A26U A49U G59U | ≤ -4.2
39 | G25U A89U C96G G100A U102C C118A A119G | ≤ -4.2
40 | A26G C75U C96U | ≤ -4.2
41 | A26U A49G C57A G88U G92A G100A A106U C125U | ≤ -4.2
42 | A26U C75U | -3.23

Row | Variant | polymerase ribozyme fitness (log ratio)
43 | A26U C36G U55A G58C C105U | ≤ -4.2
44 | G25U G86A C105U | -3.5
45 | A26U C32G G86A C105U | ≤ -4.2
46 | A26U A39C A49G G128A A138G | ≤ -4.2
47 | G25C C57A C87U A97G | -3.23
48 | C27A C36U C87G G126C C149U | ≤ -4.2
49 | G25U C69G U146A | -4.05
50 | G25U G50C C76A C87A U139G G141C | -4.02
51 | A26C U45G C63U C75U G80C G112C U144G | ≤ -4.2
52 | A26U C43U U53A G100C | ≤ -4.2
53 | G25U G84A C131U G136A U144G | -1.89
54 | C27A A37U G42C A106C C116G A121G G128A U145G | ≤ -4.2
55 | A26C U82A C95A | -2
56 | A26C C93G C114U | -4.19
57 | A26G G81A C95U | ≤ -4.2
58 | G25U U148A | ≤ -4.2
59 | A26G A52C G59C A64C | ≤ -4.2
60 | A26C U55A C75A G80C G94A C105A | ≤ -4.2
61 | A26C G81A C87U G88C G124C G136U G140C | ≤ -4.2
62 | A26U G62U U135A | -2.77
63 | A26G A91U U104G A122C | ≤ -4.2

Row | Variant | polymerase ribozyme fitness (log ratio)
64 | A26U A39C U45A A60C U61G G83C U102C U111G | ≤ -4.2
65 | G25C U45A G59A U90G G100A C116G | ≤ -4.2
66 | A26C A29C G65A C87G A97G A142G | ≤ -4.2
67 | A26C A52G | -1.25
68 | G25U G46A C57U C69A G128U A138U | ≤ -4.2
69 | G25U A47G A60G C75A A91U A122U G141C A142G | ≤ -4.2
70 | A26C C38U C69A U77G G88U | ≤ -4.2
71 | A26U C51U A52U C54G G86U C99A A107C C123G | ≤ -4.2
72 | A26U C96U A142C | -3.03
73 | A26U U104C G124C | -3.3
74 | A26U A39U G58A A66C C93U C149G | ≤ -4.2
75 | G25U C132U | -2.32
76 | A26G U145A | -3.59
77 | A26G U53A G88U G92U C118A A147G | ≤ -4.2
78 | G25U C32U A40U U56A G80C C85A C87A C116G U146G A150U | ≤ -4.2
79 | A26C G84C C108G G133A | ≤ -4.2
80 | A26C G84C C108G G133U | ≤ -4.2
81 | A26C C79A C87A U134C A150U | ≤ -4.2
82 | A26U U148A | -4.11
83 | A26G A89U | -4.16
